Assay results: the Human Domainome abundance scans (Beltran et al. 2025)

B1: Transcription elongation regulator 1-like protein, residues 448 to 504; numbered along this chain, Q5VWI1 (parent)
chain: LPLEERVTHFRDMLLERGVSAFSTWEKELHKIVFDPRYLLLNSEERKQIFEQFVKTR

Variants of: B1
Assay: abundance fitness (aPCA) (normalised: wild type 0, dead -1); higher = more abundant; growth selection in yeast, the domain comes from the species named
Details: Homo sapiens

Abundance fitness of substitutions, site by site:
H30: T -0.492; G -0.505; W -0.138; Y -0.337; N -0.547; K -0.403; I -0.439; L -0.544; C -0.569; S -0.585; E -0.276; D -0.235; P 0.098; V -0.608; R -0.295; A -0.714; M -0.515
N42: M -0.687; L -0.529; C -0.437; E -0.023; D 0.035; T -0.325; Q 0.013; P -0.533; V -0.924; S 0.034; K -0.109; A -0.571; W -0.733
E51: Y -0.375; H -0.077; K -0.278; R -0.594; Q -0.255; A 0.047; L -0.522; S -0.28; M -0.413; W -0.766; C -0.96; F -0.288; N -0.147; V -0.669; I -0.632; P -0.929; T -0.281; D -0.04; G -0.618
F50: M -0.605; L -0.413; G -0.759; W -0.17; R -0.714; V -0.833; K -0.835; Y 0.082; N 0.347; D -0.624; T -0.924; A -0.887; Q -0.866; E -0.69
Q48: G -0.237; V -0.065; I -0.213; E 0.006; D 0.297; L -0.082; K -0.31; R -0.165; W -0.05; S -0.139; M -0.002; A -0.036; C -0.227; N 0.751
R46: Y -0.162; L -0.697; G -0.39; F -0.533; C -0.657; K -0.429; V -0.436; A -0.057; S -0.644; W -0.012; T -0.815
L41: K -1.11; G -0.569; N -0.755; A -0.681; Y -0.755; H -0.543; F -0.583; D -1.04; Q -0.473; M -0.335; P -0.917; E -0.781; V -0.226; I -0.409; C -0.734; R -0.616; T -0.592
L40: D -1.05; A -0.504; G -0.349; P -0.688; E -0.466; M -0.295; W -0.639; S -0.619; V -0.877; K -0.966
S43: F -0.328; N -0.367; T -0.197; L -0.065; Q 0.07; V -0.309; M -0.134; W -0.424; K -0.145; R -0.156; G 0.034; A 0.016; E 0.341
V33: H 0.238; L -0.47; A -0.138; W -0.415; T -0.423; S 0.028; M -0.227; I 0.129; R 0.108; K 0.062; C -0.514; P -0.112; G -0.764; E -0.076
D35: R -0.436; P -0.722; G -0.757; V -0.836; T -0.892; E -0.667; S -0.944; W -0.861; H -0.354; A -1.02
K31: F -0.587; P -0.681; L -0.781; C -0.457; M -0.496; V -0.705; R -0.662; S -0.789
E28: F -0.796; L -0.446; R -0.576; Y -0.946; C -0.542; Q -0.641; D -0.673; G -0.701; A -0.822; I -1.02; V -0.71; S -0.659; M -1.04
E45: Y -0.557; P -0.791; Q -0.004; M -0.107; W -0.483; L -0.067; H -0.204; S -0.514; T -0.515; I -0.242; V -0.858; R -0.434; G -0.427
K47: H -0.109; V -0.501; D -0.747; C -0.165; G -0.31; I 0.151; F -0.04; S -0.627; W -0.602; T -0.73; Q 0.159; P -0.783; A -0.381; E -0.58; L -0.286; R 0.025
R37: L -0.952; E -0.917; W -0.733; M -0.81; A -1.19; P -0.769; V -0.564; C -0.75; G -0.692; Q -0.829
L29: W -0.986; G -0.667; Y 0.907; K 0.158; R 0.095; S -0.452; T -0.253; P -0.722; V -0.213; C -0.373; A -0.409; M 0.377; I 0.281; H 0.264; E 0.139
I49: S -0.669; C -0.261; D 0.515; Y 0.129; G -0.643; W -0.743; V 0.082; E -0.3; M -0.599; Q 0.437; L 0.035; P -0.886; A -0.517; R -0.782; T 0.117
Y38: M -0.801; W -1.06; F -0.129; R -0.669; T -0.69; G -0.786; K -0.275; L -0.5; Q -0.668; A -0.815; V -0.767; S -0.898; P -0.653; I -0.645
K27: G -0.366; T -0.711; V -0.422; W -0.799; A 0.073; Q 0.101; F 0.197; E -0.165; R -0.295; H -0.612; C -0.032; P -0.627; S -0.679
E44: T -0.105; I 0.179; C -0.195; W -0.22; M 0.253; L -0.211; F -0.21; S -0.187; K 0.094; Y -0.42; H -0.415; V -0.159; Q -0.143; G -0.211; D 0.27; P -0.606; R -0.201
F34: M -0.04; V -0.085; G 0.11; W -0.343; K -0.063; D 0.351; C -0.104; H 0.156; L -0.019; A 0.029; T 0.245; R 0.099; I 0.199; S 0.229
I32: R -0.538; S -0.916; L -0.494; P -0.418; D -0.852; A -0.909; Y 0.058; M -0.466; W -0.514; E -0.633; V 0.086; G -0.764; K -0.847; T -0.81; F -0.433; C -0.484
E26: R -0.861; V -0.914; Q -0.355; S -0.658; W -0.84; T -0.524
P36: R -0.504; V -0.717; S -0.488; G -0.514; E -0.409; K 0.011; T -0.604; D -0.584; A -0.42; W -0.011; L -0.714; C -0.869
